The term Kd denotes the constant that tells how readily two partners part at equilibrium.

The assay deals with CUL2^ZYG11B (residues 490–728) (human) (UniProt Q9C0D3). Briefly: ITC; MicroCal iTC200; peptides (0.5–1 mmol/L) in the syringe, CUL2^ZYG11B(490–728) (0.03 mmol/L) in the cell; 18 injections of 2 μL; repeated 3 times. (Isothermal titration calorimetry measures the heat released or taken up as one component is titrated into another.)
Chain of CUL2^ZYG11B (residues 490–728) (human) (Q9C0D3 490-728): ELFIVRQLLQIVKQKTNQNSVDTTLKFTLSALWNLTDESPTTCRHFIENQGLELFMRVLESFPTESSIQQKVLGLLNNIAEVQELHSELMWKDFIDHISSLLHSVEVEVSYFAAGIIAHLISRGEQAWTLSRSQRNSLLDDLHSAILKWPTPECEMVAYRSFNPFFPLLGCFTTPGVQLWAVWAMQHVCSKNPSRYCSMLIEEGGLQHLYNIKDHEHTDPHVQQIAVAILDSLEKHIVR
SARS-CoV-2 ORF10 N5 peptide Y2A gave a Kd of 25.2 µM. In other words, the double-digit micromolar range. Substance SARS-CoV-2 ORF10 N5 peptide I3F yielded a dissociation constant Kd of 0.87 µM. Against the preceding substance, the Kd is about 29-fold lower.

For SARS-CoV-2 ORF10 N5 peptide G1S, the fold decrease of binding against ORF10 N5 amounted to 4 fold. SARS-CoV-2 ORF10 N5 peptide G1A displayed a fold decrease of binding against ORF10 N5 of 4 fold. The substance SARS-CoV-2 ORF10 N5 peptide I3A registered a Kd of 5.61 µM. Still for that read-out and setting: for SARS-CoV-2 ORF10 N5 peptide N4A the value was 0.59 µM; for SARS-CoV-2 ORF10 N5 peptide Y2F, 4.73 µM.

Values taken from paper PMC11413682.
